Test results from patent US20240352419A1, “METHODS AND COMPOSITIONS FOR DIFFERENTIATION OF PLURIPOTENT STEM CELLS AND DERIVED HEMATOPOIETIC LINEAGE CELLS” (NUWACELL BIOTECHNOLOGIES CO., LTD., priority 2022, published 2024).

Legend:
K562 cells = test: Cytotoxicity of Stage 3 iNK cells by CFSE/7AAD assay; assay type: cell-based; details: added to Stage 3 medium (IL-10 20 ng/mL, IL-18 50 ng/mL), E:T 3:1, 4 hr, FIG. 13A
Description: hiPSCs were prepared as described in CN108373998B. On Day −1, Embryoid body (EB) formation (Stage 1-1) was carried out by placing individualized hiPSCs in E8 medium containing 10 μM Blebbistatin in T25 flasks on a bellydancer and culture overnight. On Day 0, lateral mesoderm differentiation (Stage 1-2) was initiated by changing the medium to a Stage 1-2 differentiation medium comprising IF-4 basal medium and supplemented with BMP4 (25 ng/mL), VEGF (15 ng/ml), bFGF (0.5 ng/mL) and CHIR99021 (4 μM) for 2 days. On Day 2, lateral mesoderm differentiation (Stage 1-3) continued for 1 day in a Stage 1-3 differentiation medium comprising IF-4 basal medium and supplemented with BMP4 (25 ng/mL), VEGF (50 ng/mL) and bFGF (0.5 ng/mL) and CHIR99021 (1 μM). On Day 3, HE specification (Stage 1-4) was initiated by adding a Stage 1-4 differentiation medium comprising IF-4 basal medium and supplemented with VEGF (15 ng/ml), bFGF (5 ng/ml), XAV939 (5 μM) for 1 day. […] On Day 11 of co-culture, iNK cells were collected and stained with CD56-PE antibody (BD, #555516), the percentage of CD56+ cells was analyzed by flow cytometry. The cytotoxicity of Stage 3 iNK cells towards K562 cells was detected by CFSE/7AAD assay after 4 hr co-culture at E:T of 3:1.

iNK cells = test: Stage 3 expansion of iNK cells co-cultured with feeder cells; assay type: cell-based, human; details: IL-18 (10-50 ng/mL) combined with IL-2 (100 IU/mL) vs IL-2 only, Stage 3, 2 weeks, FIG. 13B
Description: hiPSCs were prepared as described in CN108373998B. On Day −1, Embryoid body (EB) formation (Stage 1-1) was carried out by placing individualized hiPSCs in E8 medium containing 10 μM Blebbistatin in T25 flasks on a bellydancer and culture overnight. On Day 0, lateral mesoderm differentiation (Stage 1-2) was initiated by changing the medium to a Stage 1-2 differentiation medium comprising IF-4 basal medium and supplemented with BMP4 (25 ng/ml), VEGF (15 ng/ml), bFGF (0.5 ng/ml) and CHIR99021 (4 μM) for 2 days. On Day 2, lateral mesoderm differentiation (Stage 1-3) continued for 1 day in a Stage 1-3 differentiation medium comprising IF-4 basal medium and supplemented with BMP4 (25 ng/ml), VEGF (15 ng/mL) and bFGF (0.5 ng/mL) and CHIR99021 (1 μM). On Day 3, HE specification (Stage 1-4) was initiated by adding a Stage 1-4 differentiation medium comprising IF-4 basal medium and supplemented with VEGF (15 ng/ml), bFGF (5 ng/ml), XAV939 (5 μM) for 1 day. On Day 4 (the end of Stage 1-4), HP differentiation (Stage 1-5) in was initiated by adding a Stage 1-5 differentiation medium comprising IF-4 basal medium and supplemented with SCF (10 ng/ml), Flt3L (10 ng/ml), VEGF (15 ng/ml) and bFGF (5 ng/mL). […] On Day 14 of co-culture, iNK cells were collected and stained with CD56-PE antibody (BD, #555516), and the percentage of CD56+ cells was analyzed by flow cytometry. […]

Substance: IL-18: interleukin added to Stage 3 expansion and maturation medium
- cytotoxicity of iNK cells (K562 cells): significantly improve
- expansion fold of iNK cells (iNK cells): improve the expansion fold
